In the Human Domainome abundance scans (Beltran et al. 2025):
± gives the uncertainty stated by the source.

Test: abundance fitness (aPCA) (normalised: wild type 0, dead -1); higher = more abundant; growth selection in yeast, the domain comes from the species named
Conditions: Homo sapiens

Substance | abundance fitness
Lipoamide acyltransferase component of branched-chain alpha-keto acid dehydrogenase complex, mitochondrial L180M, P11182 | 0.008 ± 0.088
Lipoamide acyltransferase component of branched-chain alpha-keto acid dehydrogenase complex, mitochondrial L180P, P11182 | -0.557 ± 0.13
Lipoamide acyltransferase component of branched-chain alpha-keto acid dehydrogenase complex, mitochondrial L180Q, P11182 | -0.403 ± 0.12
Lipoamide acyltransferase component of branched-chain alpha-keto acid dehydrogenase complex, mitochondrial L180R, P11182 | -0.563 ± 0.046
Lipoamide acyltransferase component of branched-chain alpha-keto acid dehydrogenase complex, mitochondrial L180V, P11182 | -0.222 ± 0.039
Lipoamide acyltransferase component of branched-chain alpha-keto acid dehydrogenase complex, mitochondrial L180W, P11182 | -0.56 ± 0.047
Lipoamide acyltransferase component of branched-chain alpha-keto acid dehydrogenase complex, mitochondrial L180Y, P11182 | -0.079 ± 0.1
Lipoamide acyltransferase component of branched-chain alpha-keto acid dehydrogenase complex, mitochondrial L188A, P11182 | -0.494 ± 0.057
Lipoamide acyltransferase component of branched-chain alpha-keto acid dehydrogenase complex, mitochondrial L188C, P11182 | -0.388 ± 0.062
Lipoamide acyltransferase component of branched-chain alpha-keto acid dehydrogenase complex, mitochondrial L188D, P11182 | -0.535 ± 0.071
Lipoamide acyltransferase component of branched-chain alpha-keto acid dehydrogenase complex, mitochondrial L188E, P11182 | -0.391 ± 0.048
Lipoamide acyltransferase component of branched-chain alpha-keto acid dehydrogenase complex, mitochondrial L188F, P11182 | 0.116 ± 0.39
Lipoamide acyltransferase component of branched-chain alpha-keto acid dehydrogenase complex, mitochondrial L188G, P11182 | -0.544 ± 0.036
Lipoamide acyltransferase component of branched-chain alpha-keto acid dehydrogenase complex, mitochondrial L188H, P11182 | -0.368 ± 0.094
Lipoamide acyltransferase component of branched-chain alpha-keto acid dehydrogenase complex, mitochondrial L188K, P11182 | -0.578 ± 0.052
Lipoamide acyltransferase component of branched-chain alpha-keto acid dehydrogenase complex, mitochondrial L188M, P11182 | -0.248 ± 0.054
Lipoamide acyltransferase component of branched-chain alpha-keto acid dehydrogenase complex, mitochondrial L188N, P11182 | -0.567 ± 0.095
Lipoamide acyltransferase component of branched-chain alpha-keto acid dehydrogenase complex, mitochondrial L188P, P11182 | -0.412 ± 0.047
Lipoamide acyltransferase component of branched-chain alpha-keto acid dehydrogenase complex, mitochondrial L188R, P11182 | -0.647 ± 0.04
Lipoamide acyltransferase component of branched-chain alpha-keto acid dehydrogenase complex, mitochondrial L188S, P11182 | -0.656 ± 0.059
Lipoamide acyltransferase component of branched-chain alpha-keto acid dehydrogenase complex, mitochondrial L188T, P11182 | -0.519 ± 0.07
Lipoamide acyltransferase component of branched-chain alpha-keto acid dehydrogenase complex, mitochondrial L188W, P11182 | -0.513 ± 0.048
Lipoamide acyltransferase component of branched-chain alpha-keto acid dehydrogenase complex, mitochondrial L201A, P11182 | -0.315 ± 0.041
Lipoamide acyltransferase component of branched-chain alpha-keto acid dehydrogenase complex, mitochondrial L201C, P11182 | -0.243 ± 0.064

Substance | abundance fitness
Lipoamide acyltransferase component of branched-chain alpha-keto acid dehydrogenase complex, mitochondrial L201D, P11182 | -0.374 ± 0.14
Lipoamide acyltransferase component of branched-chain alpha-keto acid dehydrogenase complex, mitochondrial L201E, P11182 | -0.038 ± 0.042
Lipoamide acyltransferase component of branched-chain alpha-keto acid dehydrogenase complex, mitochondrial L201F, P11182 | -0.319 ± 0.09
Lipoamide acyltransferase component of branched-chain alpha-keto acid dehydrogenase complex, mitochondrial L201G, P11182 | -0.275 ± 0.034
Lipoamide acyltransferase component of branched-chain alpha-keto acid dehydrogenase complex, mitochondrial L201H, P11182 | -0.32 ± 0.07
Lipoamide acyltransferase component of branched-chain alpha-keto acid dehydrogenase complex, mitochondrial L201K, P11182 | -0.256 ± 0.056
Lipoamide acyltransferase component of branched-chain alpha-keto acid dehydrogenase complex, mitochondrial L201M, P11182 | -0.141 ± 0.069
Lipoamide acyltransferase component of branched-chain alpha-keto acid dehydrogenase complex, mitochondrial L201N, P11182 | -0.119 ± 0.093
Lipoamide acyltransferase component of branched-chain alpha-keto acid dehydrogenase complex, mitochondrial L201P, P11182 | -0.602 ± 0.062
Lipoamide acyltransferase component of branched-chain alpha-keto acid dehydrogenase complex, mitochondrial L201Q, P11182 | -0.11 ± 0.049
Lipoamide acyltransferase component of branched-chain alpha-keto acid dehydrogenase complex, mitochondrial L201R, P11182 | -0.209 ± 0.034
Lipoamide acyltransferase component of branched-chain alpha-keto acid dehydrogenase complex, mitochondrial L201S, P11182 | -0.171 ± 0.061
Lipoamide acyltransferase component of branched-chain alpha-keto acid dehydrogenase complex, mitochondrial L201T, P11182 | 0.035 ± 0.054
Lipoamide acyltransferase component of branched-chain alpha-keto acid dehydrogenase complex, mitochondrial L201V, P11182 | -0.096 ± 0.037
Lipoamide acyltransferase component of branched-chain alpha-keto acid dehydrogenase complex, mitochondrial L201W, P11182 | -0.683 ± 0.052
Lipoamide acyltransferase component of branched-chain alpha-keto acid dehydrogenase complex, mitochondrial L206A, P11182 | -0.08 ± 0.036
Lipoamide acyltransferase component of branched-chain alpha-keto acid dehydrogenase complex, mitochondrial L206C, P11182 | -0.555 ± 0.34
Lipoamide acyltransferase component of branched-chain alpha-keto acid dehydrogenase complex, mitochondrial L206D, P11182 | 0.01 ± 0.065
Lipoamide acyltransferase component of branched-chain alpha-keto acid dehydrogenase complex, mitochondrial L206E, P11182 | 0.007 ± 0.06
Lipoamide acyltransferase component of branched-chain alpha-keto acid dehydrogenase complex, mitochondrial L206F, P11182 | -0.353 ± 0.36
Lipoamide acyltransferase component of branched-chain alpha-keto acid dehydrogenase complex, mitochondrial L206G, P11182 | -0.149 ± 0.033
Lipoamide acyltransferase component of branched-chain alpha-keto acid dehydrogenase complex, mitochondrial L206K, P11182 | -0.113 ± 0.065
Lipoamide acyltransferase component of branched-chain alpha-keto acid dehydrogenase complex, mitochondrial L206N, P11182 | -0.052 ± 0.066
Lipoamide acyltransferase component of branched-chain alpha-keto acid dehydrogenase complex, mitochondrial L206P, P11182 | -0.291 ± 0.063
